Experiment [1] deals with recombinant FIPV-UU4 S protein (ectodomain of the spike protein of serotype I feline infectious peritonitis virus strain UU4, fused with the trimerization domain of T4 fibritin) (feline infectious peritonitis virus, serotype I, strain UU4 | bacteriophage T4). The experiment is described as follows: cryo-EM structure.
For experiment [2] the target is unchanged. The experiment can be described thus: native gel or EMSA.

Consider “recombinant FIPV-UU4 S protein (ectodomain of the spike protein of serotype I feline infectious peritonitis virus strain UU4, fused with the trimerization domain of T4 fibritin) (natural protein)”, for which the stoichiometry N in experiment [1] and in experiment [2] was 3 throughout.

These data come from PMC6983407.
